# Laboratory results taken from paper PMC3197789.
# Tests used:
# [1] = test system: 7HC-STAT3beta, Src-phosphorylated (pY705); assay: EMSA with unlabelled hSIE competition; conditions: not given in the material (Supporting Information not held)
# [2] = test system: wt STAT3beta, Src-phosphorylated (pY705); assay: EMSA with unlabelled hSIE competition; conditions: not given in the material (Supporting Information not held)
substance,measurement,setting,value
hSIE (high-affinity sis-inducible element) probe,Kd,[1],6.8 nM
same,Kd,[2],6.3 nM
